Assay results: patent US10400230B2, “Protease variants and polynucleotides encoding same” (NOVOZYMES A/S, priority 2014, dated 2019)
Positions count from the first letter of the chain named. Names may count otherwise. “And” between values parts separate entries of the source, which are not always exact repeats. Equal entries are not always repeated. One block for each molecule: values may come before it.

Assay: Determination of binding constants of inhibitor (NNIC) in Model B detergent, Suc-AAPF-pNA read-out
Assay type: biochemical
Details: Ki of variant with the mutation relative to variant without the mutation, <1.0 beneficial
Method: Purified protease variants are pre-diluted to approximately 0.2 mg/ml in dilution buffer. 40 μl diluted protease is then mixed with 40 μl inhibitor solution (Z-Gly-Ala-NHCH(CH2C6H4pOH)C(OH)(SO3Na)—H, wherein Z is benzyloxycarbonyl) or 40 μl 4-FPBA solution in the well of a 96 well microtiter plate (Nunc F 96-MTP). […] After 10 min mixing of protease and inhibitor at room temperature, 30 μl of the mixture is transferred to a microtiter plate (Nunc U96 PP 0.5 ml) with 270 μl Model B detergent in the wells resulting in inhibitor concentrations of 0-30 μM and 4-FPBA concentrations of 0-6000 μM. Protease, inhibitor and detergent is mixed for 1 hour using magnetic bars for 1 hour at room temperature to reach equilibrium. Then 20 μl is transferred to a microtiter plate (Nunc F 96-MTP). 100 μl substrate solution is added and after 5 sec mixing absorbance at 405 nm is measured every 20 sec for 5 min on a SpectraMax Plus reader. Slope from linear regression of initial increase in absorbance at 405 nm is used for calculation of apparent binding constants.
It is assumed that protease and inhibitor react according to the equation: E+I ? EI
Where E is the protease, I is the inhibitor and EI is the protease-inhibitor complex. […] The concentration of enzyme-inhibitor in the detergent solution is then given by:
where Etot is the total protease concentration ([Etot]=[E]+[EI]), Itot is the total inhibitor concentration ([Itot]=[I]+[EI]), and Ki is the equilibrium binding constant for the reaction. The measured slopes V are given by:
where V0 is the slope without inhibitor added. To calculate apparent binding constant Ki least square fitting of measured slopes at various inhibitor concentrations to this equation is performed with Ki and V0 as variables.
The Ki for the parent protease and for each variant was calculated as described above
Having the Ki for each variant, it is possible to calculate the effect of a single mutation, if data are available for at least two variants that differ only by that mutation. In this case, the relative Ki for the mutation is calculated:
[formula] A lower Ki is desirable, as a satisfactory inhibition can be obtained at a lower inhibitor concentration, so beneficial mutations have a relative Ki<1.0 The following table show such relative Kimutation. Each row show: • a mutation (column 1: “Mutation”) • a protease variant (relative to SEQ ID NO: 2) that comprise the mutation from column 1 (column 2: “Variant with the mutation”) • another protease variant (relative to SEQ ID NO: 2), that differs from the one in column 2 only by not having the mutation in column 1 (column 3: “Variant without the mutation”) • Relative Kimutation for the mutation in column 1, in the context of the variant in column 3, measured in Model B detergent (column 4: “inhibitor binding in Model B”) • Relative Kimutation for the mutation in column 1, in the context of the variant in column 3, measured in Tris buffer at pH 8 (column 5: “inhibitor binding in Tris buffer pH 8”)
Ki were calculated as shown in Example 3. The Improvement Factor (IF) or Relative

Inhibitor-binding relative Kimutation, inhibitor binding in Model B: 0.51
B5: S173P, S175P, I178P, F180Y: TY145 protease (SEQ ID NO 3) variant with these substitutions (protein, listed as Bacillus sp.)
chain: AVPSTQTPWGIKSIYNDQSITKTTGGSGIKVAVLDTGVYTSHLDLAGSAEQCKDFTQSNPLVDGSCTDRQGHGTHVAGTVLAHGGSNGQGVYGVAPQAKLWAYKVLGDNGSGYSDDIAAAIRHVADEASRTGSKVVINMSLGSSAKDSLIASAVDYAYGKGVLIVAAAGNSGPGPNTPGYPGGLVNAVAVAALENVQQNGTYRVADFSSRGNPATAGDYIIQERDIEVSAPGASVESTWYTGGYNTISGTSMATPHVAGLAAKIWSANTSLSHSQLRTELQNRAKVYDIKGGIGAGTGDDYASGFGYPRVK

Inhibitor-binding relative Kimutation, inhibitor binding in Model B: 0.32
B7: S27K, S173P, G174K, S175P, F180Y, L184Y, Q197K, Q198E, T297P: TY145 protease (SEQ ID NO 3) variant with these substitutions (protein, listed as Bacillus sp.)
chain: B5 chain with S27K, G174K, P178I, L184Y, Q197K, Q198E, T297P

Inhibitor-binding relative Kimutation, inhibitor binding in Model B: 0.50 and 0.49
B8: S173P, S175P, I178F, F180Y: TY145 protease (SEQ ID NO 3) variant with these substitutions (protein, listed as Bacillus sp.)
chain: B5 chain with P178F

Inhibitor-binding relative Kimutation, inhibitor binding in Model B: 0.81
B10: S173P, S175P, N176Y, F180Y: TY145 protease (SEQ ID NO 3) variant with these substitutions (protein, listed as Bacillus sp.)
chain: B5 chain with N176Y, P178I

Inhibitor-binding relative Kimutation, inhibitor binding in Model B: 0.21
B11: S27K, S173P, G174K, S175P, F180Y, L184Y, Q198E, N199K, T297P: TY145 protease (SEQ ID NO 3) variant with these substitutions (protein, listed as Bacillus sp.)
chain: B5 chain with S27K, G174K, P178I, L184Y, Q198E, N199K, T297P

Inhibitor-binding relative Kimutation, inhibitor binding in Model B: 0.24
B12: S173P, S175P, F180Y, L184Y: TY145 protease (SEQ ID NO 3) variant with these substitutions (protein, listed as Bacillus sp.)
chain: B5 chain with P178I, L184Y

Inhibitor-binding relative Kimutation, inhibitor binding in Model B: 0.36
B13: S173P, S175P, F180Y, R224D: TY145 protease (SEQ ID NO 3) variant with these substitutions (protein, listed as Bacillus sp.)
chain: B5 chain with P178I, R224D

Inhibitor-binding relative Kimutation, inhibitor binding in Model B: 0.22
B15: S27K, S173P, G174K, S175P, F180Y, L184F, Q198E, N199R, T297P: TY145 protease (SEQ ID NO 3) variant with these substitutions (protein, listed as Bacillus sp.)
chain: B5 chain with S27K, G174K, P178I, L184F, Q198E, N199R, T297P

Inhibitor-binding relative Kimutation, inhibitor binding in Model B: 0.47
B17: S173P, S175P, F180Y, R224G: TY145 protease (SEQ ID NO 3) variant with these substitutions (protein, listed as Bacillus sp.)
chain: B5 chain with P178I, R224G

Inhibitor-binding relative Kimutation, inhibitor binding in Model B: 0.53
B18: S173P, S175P, I178Y, F180Y: TY145 protease (SEQ ID NO 3) variant with these substitutions (protein, listed as Bacillus sp.)
chain: B5 chain with P178Y

Inhibitor-binding relative Kimutation, inhibitor binding in Model B: 0.50
B19: S173P, S175P, F180Y, L184W: TY145 protease (SEQ ID NO 3) variant with these substitutions (protein, listed as Bacillus sp.)
chain: B5 chain with P178I, L184W

Inhibitor-binding relative Kimutation, inhibitor binding in Model B: 0.31 and 0.27
B20: S173P, S175P, F180Y, L184F: TY145 protease (SEQ ID NO 3) variant with these substitutions (protein, listed as Bacillus sp.)
chain: B5 chain with P178I, L184F

Inhibitor-binding relative Kimutation, inhibitor binding in Model B: 0.37
B21: S173P, S175P, F180Y, L184D: TY145 protease (SEQ ID NO 3) variant with these substitutions (protein, listed as Bacillus sp.)
chain: B5 chain with P178I, L184D

Further lines, the molecule ahead of its results:

B1: S27K, I150N, S171N, S173P, G174R, S175P, F180Y, Q198, ET297P: TY145 protease (SEQ ID NO 3) variant with these substitutions (protein, listed as Bacillus sp.)
chain: B5 chain with S27K, I150N, S171N, G174R, P178I, Q198E, T297P
Inhibitor-binding relative Kimutation, inhibitor binding in Model B: 0.24

B2: S27K, K146P, S148R, A151R, S171N, S173P, G174R, S175P, F180Y, Q198E, N199K, T297P: TY145 protease (SEQ ID NO 3) variant with these substitutions (protein, listed as Bacillus sp.)
chain: B5 chain with S27K, K146P, S148R, A151R, S171N, G174R, P178I, Q198E, N199K, T297P
Inhibitor-binding relative Kimutation, inhibitor binding in Model B: 0.75

B3: S27K, S173P, G174K, S175P, F180Y, L184F, Q198E, N199K, T297P: TY145 protease (SEQ ID NO 3) variant with these substitutions (protein, listed as Bacillus sp.)
chain: B5 chain with S27K, G174K, P178I, L184F, Q198E, N199K, T297P
Inhibitor-binding relative Kimutation, inhibitor binding in Model B: 0.36

B4: S27K, S171N, S173P, G174R, S175P, F180Y, Q198E, N199K, R224G, T297P: TY145 protease (SEQ ID NO 3) variant with these substitutions (protein, listed as Bacillus sp.)
chain: B5 chain with S27K, S171N, G174R, P178I, Q198E, N199K, R224G, T297P
Inhibitor-binding relative Kimutation, inhibitor binding in Model B: 0.74

B6: S27K, Q70N, G107N, I121V, E127Q, S173P, S175P, F180Y, L184F, Q198E, T297P: TY145 protease (SEQ ID NO 3) variant with these substitutions (protein, listed as Bacillus sp.)
chain: B5 chain with S27K, Q70N, G107N, I121V, E127Q, P178I, L184F, Q198E, T297P
Inhibitor-binding relative Kimutation, inhibitor binding in Model B: 0.37

B9: S27K, S171N, S173P, G174R, S175P, F180Y, L184Y, Q198E, T297P: TY145 protease (SEQ ID NO 3) variant with these substitutions (protein, listed as Bacillus sp.)
chain: B5 chain with S27K, S171N, G174R, P178I, L184Y, Q198E, T297P
Inhibitor-binding relative Kimutation, inhibitor binding in Model B: 0.18

B14: S27K, I121V, S171N, S173P, G174R, S175P, F180Y, L184F, Q198E, T297P: TY145 protease (SEQ ID NO 3) variant with these substitutions (protein, listed as Bacillus sp.)
chain: B5 chain with S27K, I121V, S171N, G174R, P178I, L184F, Q198E, T297P
Inhibitor-binding relative Kimutation, inhibitor binding in Model B: 0.30

B16: S27K, S171N, S173P, G174R, S175P, F180Y, L184W, Q198E, T297P: TY145 protease (SEQ ID NO 3) variant with these substitutions (protein, listed as Bacillus sp.)
chain: B5 chain with S27K, S171N, G174R, P178I, L184W, Q198E, T297P
Inhibitor-binding relative Kimutation, inhibitor binding in Model B: 0.57

B22: S27K, S171N, S173P, G174R, S175P, F180Y, L184F, Q198E, T297P: TY145 protease (SEQ ID NO 3) variant with these substitutions (protein, listed as Bacillus sp.)
chain: B5 chain with S27K, S171N, G174R, P178I, L184F, Q198E, T297P
Inhibitor-binding relative Kimutation, inhibitor binding in Model B: 0.18
